Measurements reported in article PMC9482650, “Quantitative fragmentomics allow affinity mapping of interactomes” (Nature Communications, 2022).

T1: PARD3B_1, Q8TEW8
T1 sequence (Q8TEW8 196-299, limits assumed, looked up): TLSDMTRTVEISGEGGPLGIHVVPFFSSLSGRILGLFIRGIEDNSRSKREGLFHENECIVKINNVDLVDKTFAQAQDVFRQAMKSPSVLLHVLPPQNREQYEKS

T2: NHERF3_3, Q5T2W1
T2 sequence (Q5T2W1 238-333, limits assumed, looked up): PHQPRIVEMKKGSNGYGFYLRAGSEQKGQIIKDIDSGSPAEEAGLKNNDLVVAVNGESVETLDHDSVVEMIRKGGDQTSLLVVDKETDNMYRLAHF

T3: MPP6, Q9NZW5
T3 sequence (Q9NZW5 125-219, limits assumed, looked up): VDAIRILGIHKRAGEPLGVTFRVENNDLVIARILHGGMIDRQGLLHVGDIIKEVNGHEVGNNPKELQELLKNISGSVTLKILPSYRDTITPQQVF

T4: SNTG2, Q9NY99
T4 sequence (Q9NY99 68-166, limits assumed, looked up): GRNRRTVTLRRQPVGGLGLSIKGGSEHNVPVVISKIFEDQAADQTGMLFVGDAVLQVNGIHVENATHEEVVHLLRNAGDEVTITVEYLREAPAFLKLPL

T5: SNTG1, Q9NSN8
T5 sequence (Q9NSN8 52-150, limits assumed, looked up): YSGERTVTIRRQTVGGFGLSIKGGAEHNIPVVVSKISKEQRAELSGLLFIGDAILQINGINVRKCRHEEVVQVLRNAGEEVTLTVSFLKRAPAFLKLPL

T6: LRRC7, Q96NW7
T6 sequence (Q96NW7 1440-1537, limits assumed, looked up): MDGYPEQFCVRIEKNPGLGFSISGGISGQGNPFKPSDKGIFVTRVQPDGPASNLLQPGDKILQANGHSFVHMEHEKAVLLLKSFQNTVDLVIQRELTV

T7: TIAM2, Q8IVF5
T7 sequence (Q8IVF5 885-986, limits assumed, looked up): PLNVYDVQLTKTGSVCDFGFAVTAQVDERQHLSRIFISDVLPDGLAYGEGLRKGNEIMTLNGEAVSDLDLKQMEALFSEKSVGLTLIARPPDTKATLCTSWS

T8: NHERF3_1, Q5T2W1
T8 sequence (Q5T2W1 4-100, limits assumed, looked up): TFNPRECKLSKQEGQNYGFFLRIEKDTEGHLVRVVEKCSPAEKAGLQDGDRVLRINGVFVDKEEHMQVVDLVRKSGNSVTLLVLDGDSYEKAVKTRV


Key:
Experiment in all cases: holdup assay
Set-up in all cases: key: below the threshold = too weak to quantify, mostly under pKd 3.1 to 4
Details in all cases: plain residues with an end cap or a label only (N-terminal biotin on a linker: ado-ado)
PARD3B_1, Q8TEW8 = biological target: T1, PARD3B_1, Q8TEW8
NHERF3_3, Q5T2W1 = biological target: T2, NHERF3_3, Q5T2W1
GRIP2_6, Q9C0E4 = biological target: GRIP2_6, Q9C0E4
MPP6, Q9NZW5 = biological target: T3, MPP6, Q9NZW5
PARD3_3, Q8TEW0 = biological target: PARD3_3, Q8TEW0
SCRIB_1, Q14160 = biological target: SCRIB_1, Q14160
SCRIB_3, Q14160 = biological target: SCRIB_3, Q14160
DLG4_2, P78352 = biological target: DLG4_2, P78352
PTPN3, P26045 = biological target: PTPN3, P26045
MAST2, Q6P0Q8 = biological target: MAST2, Q6P0Q8
LDB3, O75112 = biological target: LDB3, O75112
IL16_4, Q14005 = biological target: IL16_4, Q14005
IL16_1, Q14005 = biological target: IL16_1, Q14005
SNTG2, Q9NY99 = biological target: T4, SNTG2, Q9NY99
SNTG1, Q9NSN8 = biological target: T5, SNTG1, Q9NSN8
PICK1, Q9NRD5 = biological target: PICK1, Q9NRD5
LRRC7, Q96NW7 = biological target: T6, LRRC7, Q96NW7
NHERF4_4, Q86UT5 = biological target: NHERF4_4, Q86UT5
TIAM2, Q8IVF5 = biological target: T7, TIAM2, Q8IVF5
LAP2, Q96RT1 = biological target: LAP2, Q96RT1
LIMK2, P53671 = biological target: LIMK2, P53671
Inadl_1, Q8NI35 = biological target: Inadl_1, Q8NI35
DLG1_2, Q12959 = biological target: DLG1_2, Q12959
DLG1_3, Q12959 = biological target: DLG1_3, Q12959
TJP1_3, Q07157 = biological target: TJP1_3, Q07157
ARHGEF12, Q9NZN5-2 = biological target: ARHGEF12, Q9NZN5-2
DLG4_3, P78352 = biological target: DLG4_3, P78352
NHERF3_1, Q5T2W1 = biological target: T8, NHERF3_1, Q5T2W1
GRASP, Q7Z6J2 = biological target: GRASP, Q7Z6J2
Inadl_3, Q8NI35 = biological target: Inadl_3, Q8NI35
Inadl_3, Q8NI35, sequence (Q8NI35 359-469): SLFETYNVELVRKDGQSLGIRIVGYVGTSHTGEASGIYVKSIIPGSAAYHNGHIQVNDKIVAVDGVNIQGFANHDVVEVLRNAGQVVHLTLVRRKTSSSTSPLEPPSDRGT

SCRIB_1, Q14160, sequence (Q14160 718-814): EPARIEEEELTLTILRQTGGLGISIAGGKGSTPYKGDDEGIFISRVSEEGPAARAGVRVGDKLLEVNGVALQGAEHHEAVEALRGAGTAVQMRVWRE
LIMK2, P53671, sequence (P53671 143-248): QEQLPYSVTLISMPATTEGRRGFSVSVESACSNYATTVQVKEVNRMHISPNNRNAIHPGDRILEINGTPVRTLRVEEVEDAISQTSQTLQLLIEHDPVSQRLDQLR
ARHGEF12, Q9NZN5-2, sequence (Q9NZN5 other isoform, or with tags, fused parts or gaps): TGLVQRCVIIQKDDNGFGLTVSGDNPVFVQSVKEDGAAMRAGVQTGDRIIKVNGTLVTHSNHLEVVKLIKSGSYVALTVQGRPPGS
GRIP2_6, Q9C0E4, sequence (Q9C0E4 648-740): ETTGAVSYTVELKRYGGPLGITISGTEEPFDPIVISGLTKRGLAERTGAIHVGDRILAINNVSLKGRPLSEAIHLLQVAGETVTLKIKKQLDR
IL16_1, Q14005, sequence (Q14005 210-306): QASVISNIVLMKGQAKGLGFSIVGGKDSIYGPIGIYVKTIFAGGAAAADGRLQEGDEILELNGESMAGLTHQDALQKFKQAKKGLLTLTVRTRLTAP
DLG1_3, Q12959, sequence (Q12959 457-571): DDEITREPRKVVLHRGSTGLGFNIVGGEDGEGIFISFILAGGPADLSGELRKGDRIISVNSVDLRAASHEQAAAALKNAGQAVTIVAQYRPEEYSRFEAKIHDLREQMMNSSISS
PTPN3, P26045, sequence (P26045 505-587): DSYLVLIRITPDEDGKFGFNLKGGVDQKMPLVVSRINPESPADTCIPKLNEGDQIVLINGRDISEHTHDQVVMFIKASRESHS
DLG4_2, P78352, sequence (P78352 155-259): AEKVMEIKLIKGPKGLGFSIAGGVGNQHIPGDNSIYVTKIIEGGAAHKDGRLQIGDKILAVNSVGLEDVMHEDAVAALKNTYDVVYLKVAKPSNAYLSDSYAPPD
DLG1_2, Q12959, sequence (Q12959 314-412): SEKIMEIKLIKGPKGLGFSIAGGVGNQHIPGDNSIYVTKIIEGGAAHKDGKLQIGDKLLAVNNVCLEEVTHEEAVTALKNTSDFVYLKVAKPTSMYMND
DLG4_3, P78352, sequence (P78352 306-403): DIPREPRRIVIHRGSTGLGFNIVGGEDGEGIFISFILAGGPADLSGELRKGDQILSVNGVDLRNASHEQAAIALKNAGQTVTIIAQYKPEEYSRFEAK
SCRIB_3, Q14160, sequence (Q14160 999-1103): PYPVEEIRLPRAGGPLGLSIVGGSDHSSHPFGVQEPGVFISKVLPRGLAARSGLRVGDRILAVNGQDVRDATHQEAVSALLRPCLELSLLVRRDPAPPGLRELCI
LAP2, Q96RT1, sequence (Q96RT1 other isoform, or with tags, fused parts or gaps): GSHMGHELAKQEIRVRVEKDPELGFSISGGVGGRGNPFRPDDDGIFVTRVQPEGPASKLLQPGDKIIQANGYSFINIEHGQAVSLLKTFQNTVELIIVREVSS
LDB3, O75112, sequence (O75112 1-94): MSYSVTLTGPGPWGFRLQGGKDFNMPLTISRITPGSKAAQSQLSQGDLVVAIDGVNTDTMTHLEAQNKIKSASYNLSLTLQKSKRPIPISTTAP
IL16_4, Q14005, sequence (Q14005 1229-1329): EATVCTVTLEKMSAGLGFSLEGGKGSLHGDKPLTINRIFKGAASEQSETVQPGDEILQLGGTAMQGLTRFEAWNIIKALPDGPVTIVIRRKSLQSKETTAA
GRASP, Q7Z6J2, sequence (Q7Z6J2 96-193): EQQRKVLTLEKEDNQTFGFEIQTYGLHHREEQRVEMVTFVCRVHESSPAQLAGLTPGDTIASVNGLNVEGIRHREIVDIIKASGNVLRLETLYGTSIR
Inadl_1, Q8NI35, sequence (Q8NI35 113-229): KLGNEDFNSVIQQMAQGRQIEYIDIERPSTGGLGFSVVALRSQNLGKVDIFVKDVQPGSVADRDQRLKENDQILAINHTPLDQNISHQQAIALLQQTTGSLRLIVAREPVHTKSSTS
NHERF4_4, Q86UT5, sequence (Q86UT5 464-550): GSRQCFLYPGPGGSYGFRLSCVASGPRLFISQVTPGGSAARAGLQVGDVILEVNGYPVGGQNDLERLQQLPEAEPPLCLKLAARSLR
PARD3_3, Q8TEW0, sequence (Q8TEW0 582-685): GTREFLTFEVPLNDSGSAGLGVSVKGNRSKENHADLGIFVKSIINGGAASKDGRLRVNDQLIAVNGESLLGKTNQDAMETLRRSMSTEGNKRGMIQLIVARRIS
MAST2, Q6P0Q8, sequence (Q6P0Q8 1099-1202): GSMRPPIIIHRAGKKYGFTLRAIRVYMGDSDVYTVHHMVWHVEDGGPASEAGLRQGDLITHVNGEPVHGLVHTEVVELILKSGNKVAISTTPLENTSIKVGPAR
PICK1, Q9NRD5, sequence (Q9NRD5 17-115): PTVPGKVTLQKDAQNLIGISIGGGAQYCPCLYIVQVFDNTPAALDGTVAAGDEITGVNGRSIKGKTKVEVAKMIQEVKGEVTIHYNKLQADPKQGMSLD
TJP1_3, Q07157, sequence (Q07157 416-512): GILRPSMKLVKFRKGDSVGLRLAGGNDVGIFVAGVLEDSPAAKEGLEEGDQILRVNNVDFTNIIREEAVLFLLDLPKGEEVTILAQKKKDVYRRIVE

| pKd (PARD3B_1, Q8TEW8) | pKd (NHERF3_3, Q5T2W1) | pKd (GRIP2_6, Q9C0E4) | pKd (MPP6, Q9NZW5) | pKd (PARD3_3, Q8TEW0) | pKd (SCRIB_1, Q14160) | pKd (SCRIB_3, Q14160) | pKd (DLG4_2, P78352) | pKd (PTPN3, P26045) | pKd (MAST2, Q6P0Q8) | pKd (LDB3, O75112) | pKd (IL16_4, Q14005) | pKd (IL16_1, Q14005) | pKd (SNTG2, Q9NY99) | pKd (SNTG1, Q9NSN8) | pKd (PICK1, Q9NRD5) | pKd (LRRC7, Q96NW7) | pKd (NHERF4_4, Q86UT5) | pKd (TIAM2, Q8IVF5) | pKd (LAP2, Q96RT1) | Binder | also measured |
| --- | --- | --- | --- | --- | --- | --- | --- | --- | --- | --- | --- | --- | --- | --- | --- | --- | --- | --- | --- | --- | --- |
| below the threshold | below the threshold | below the threshold | below the threshold | below the threshold | below the threshold | below the threshold | below the threshold | below the threshold | 4.03 | below the threshold | below the threshold | below the threshold | below the threshold | below the threshold | below the threshold | below the threshold | below the threshold | below the threshold | below the threshold | GSGAVEMESV [AQP6, Q13520] | pKd (LIMK2, P53671): below the threshold; pKd (Inadl_1, Q8NI35): below the threshold; pKd (DLG1_2, Q12959): below the threshold; pKd (DLG1_3, Q12959): below the threshold; pKd (TJP1_3, Q07157): below the threshold; pKd (ARHGEF12, Q9NZN5-2): below the threshold; pKd (DLG4_3, P78352): below the threshold; pKd (NHERF3_1, Q5T2W1): below the threshold; pKd (GRASP, Q7Z6J2): below the threshold; pKd (Inadl_3, Q8NI35): below the threshold |
| below the threshold | below the threshold | below the threshold | below the threshold | below the threshold | 3.92 | 3.58 | 4.97 | 3.89 | 4.48 | below the threshold | below the threshold | below the threshold | 3.89 | below the threshold | below the threshold | below the threshold | below the threshold | below the threshold | below the threshold | PPYRHRNTVV [ERBB4, Q15303] | pKd (LIMK2, P53671): below the threshold; pKd (Inadl_1, Q8NI35): below the threshold; pKd (DLG1_2, Q12959): 5.25; pKd (DLG1_3, Q12959): 4.01; pKd (TJP1_3, Q07157): below the threshold; pKd (ARHGEF12, Q9NZN5-2): 4.12; pKd (DLG4_3, P78352): 4.23; pKd (NHERF3_1, Q5T2W1): below the threshold; pKd (GRASP, Q7Z6J2): 4.04; pKd (Inadl_3, Q8NI35): below the threshold |
| 5.18 | below the threshold | below the threshold | below the threshold | 4.43 | below the threshold | 4.03 | below the threshold | 4.47 | 5.52 | below the threshold | below the threshold | below the threshold | below the threshold | below the threshold | below the threshold | 3.84 | 3.6 | 4.05 | 3.69 | CLREWCDAFL [BANF1, O75531] | pKd (LIMK2, P53671): 3.61; pKd (Inadl_1, Q8NI35): below the threshold; pKd (DLG1_2, Q12959): below the threshold; pKd (DLG1_3, Q12959): below the threshold; pKd (TJP1_3, Q07157): below the threshold; pKd (ARHGEF12, Q9NZN5-2): below the threshold; pKd (DLG4_3, P78352): below the threshold; pKd (NHERF3_1, Q5T2W1): 4.78; pKd (GRASP, Q7Z6J2): 3.51; pKd (Inadl_3, Q8NI35): 4.23 |
